# Laboratory results taken from patent US20060257938A1, “Method of screening for drugs that block ligand binding to a lipid binding protein” (priority 2005, published 2006).
# “And” between values parts separate entries of the source, which are not always exact repeats. Equal values may be shown once.
# Legend:
# Format in all cases: binding
# Conditions in all cases: response relative to ADIFAB2
# [1] = Probe fluorescence ratio response to arachidonic acid relative to ADIFAB2
# Method in brief: (§1)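 Fluorescently labeled rat intestinal FABP variants were read at two emission wavelengths, near the unbound maximum (about 420 to 480 nm) and the FFA-bound maximum (about 495 to 580 nm). R = Fλ1/Fλ2 after subtracting probe-free intensity; ΔR = R+agent − R0, normalized to ADIFAB2 (rI-FABP-L72A).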
# [2] = Probe fluorescence ratio response to linolenic acid relative to ADIFAB2
# Method in brief: as §1
# [3] = Probe fluorescence ratio response to linoleic acid relative to ADIFAB2
# Method in brief: as §1
# [4] = Probe fluorescence ratio response to oleic acid relative to ADIFAB2
# Method in brief: as §1
# [5] = Probe fluorescence ratio response to palmitic acid relative to ADIFAB2
# Method in brief: as §1
Molecule,DR/DR AA ([1]; Arachidonic acid),DR/DR AA ([1]; arachidonic acid),DR/DR LNA [2],DR/DR LA [3],DR/DR OA [4],DR/DR PA [5]
"74L, 72A (protein, listed as Rattus norvegicus, PEPTIDE (1)...(131) wild-type rat intestinal fatty acid binding protein) AFDGTWKVDRNENYEKFMEKMGINVVKRKLGAHDNLKLTITQEGNKFTVKESSNFRNIDVVFELGVDFAYSAALGTELTGTWTMEGNKLVGKFKRVDNGKELIAVREISGNELIQTYTYEGVEAKRIFKKE",0.22,0.222,0.40 and 0.404,0.30 and 0.305,0.19 and 0.188,0.36 and 0.361
"82A1, 72A (protein, listed as Rattus norvegicus, PEPTIDE (1)...(131) wild-type rat intestinal fatty acid binding protein) AFDGTWKVDRNENYEKFMEKMGINVVKRKLGAHDNLKLTITQEGNKFTVKESSNFRNIDVVFELGVDFAYSAADGTELTGTATMEGNKLVGKFKRVDNGKELIAVREISGNELIQTYTYEGVEAKRIFKKE",0.73,,0.66,0.78,0.80,0.26
"82A, 72A (protein, listed as Rattus norvegicus, PEPTIDE (1)...(131) wild-type rat intestinal fatty acid binding protein) AFDGTWKVDRNENYEKFMEKMGINVVKRKLGAHDNLKLTITQEGNKFTVKESSNFRNIDVVFELGVDFAYSAADGTELTGTATMEGNKLVGKFKRVDNGKELIAVREISGNELIQTYTYEGVEAKRIFKKE",1.55,,1.56,1.67,1.53,0.84
"78T1, 72A (protein, listed as Rattus norvegicus, PEPTIDE (1)...(131) wild-type rat intestinal fatty acid binding protein) AFDGTWKVDRNENYEKFMEKMGINVVKRKLGAHDNLKLTITQEGNKFTVKESSNFRNIDVVFELGVDFAYSAADGTETTGTWTMEGNKLVGKFKRVDNGKELIAVREISGNELIQTYTYEGVEAKRIFKKE",1.07,,1.20,1.25,1.08,0.54
"78F1, 72A (protein, listed as Rattus norvegicus, PEPTIDE (1)...(131) wild-type rat intestinal fatty acid binding protein) AFDGTWKVDRNENYEKFMEKMGINVVKRKLGAHDNLKLTITQEGNKFTVKESSNFRNIDVVFELGVDFAYSAADGTEFTGTWTMEGNKLVGKFKRVDNGKELIAVREISGNELIQTYTYEGVEAKRIFKKE",2.04,,2.05,2.00,1.83,0.91
"82I3, 72A (protein, listed as Rattus norvegicus, PEPTIDE (1)...(131) wild-type rat intestinal fatty acid binding protein) AFDGTWKVDRNENYEKFMEKMGINVVKRKLGAHDNLKLTITQEGNKFTVKESSNFRNIDVVFELGVDFAYSAADGTELTGTITMEGNKLVGKFKRVDNGKELIAVREISGNELIQTYTYEGVEAKRIFKKE",0.67,,0.45,0.52,0.54,0.36
"74T, 72A (protein, listed as Rattus norvegicus, PEPTIDE (1)...(131) wild-type rat intestinal fatty acid binding protein) AFDGTWKVDRNENYEKFMEKMGINVVKRKLGAHDNLKLTITQEGNKFTVKESSNFRNIDVVFELGVDFAYSAATGTELTGTWTMEGNKLVGKFKRVDNGKELIAVREISGNELIQTYTYEGVEAKRIFKKE",0.76,,0.78,0.82,0.70,0.37
"78H1, 72A (protein, listed as Rattus norvegicus, PEPTIDE (1)...(131) wild-type rat intestinal fatty acid binding protein) AFDGTWKVDRNENYEKFMEKMGINVVKRKLGAHDNLKLTITQEGNKFTVKESSNFRNIDVVFELGVDFAYSAADGTEHTGTWTMEGNKLVGKFKRVDNGKELIAVREISGNELIQTYTYEGVEAKRIFKKE",1.23,,1.26,1.28,1.13,0.57
"78I1, 72A (protein, listed as Rattus norvegicus, PEPTIDE (1)...(131) wild-type rat intestinal fatty acid binding protein) AFDGTWKVDRNENYEKFMEKMGINVVKRKLGAHDNLKLTITQEGNKFTVKESSNFRNIDVVFELGVDFAYSAADGTEITGTWTMEGNKLVGKFKRVDNGKELIAVREISGNELIQTYTYEGVEAKRIFKKE",1.27,,1.66,1.11,0.93,0.52
"104I1, 72A (protein, listed as Rattus norvegicus, PEPTIDE (1)...(131) wild-type rat intestinal fatty acid binding protein) AFDGTWKVDRNENYEKFMEKMGINVVKRKLGAHDNLKLTITQEGNKFTVKESSNFRNIDVVFELGVDFAYSAADGTELTGTWTMEGNKLVGKFKRVDNGKELIIVREISGNELIQTYTYEGVEAKRIFKKE",,0.28,0.30,0.30,0.31,0.23
"78A3, 72A (protein, listed as Rattus norvegicus, PEPTIDE (1)...(131) wild-type rat intestinal fatty acid binding protein) AFDGTWKVDRNENYEKFMEKMGINVVKRKLGAHDNLKLTITQEGNKFTVKESSNFRNIDVVFELGVDFAYSAADGTEATGTWTMEGNKLVGKFKRVDNGKELIAVREISGNELIQTYTYEGVEAKRIFKKE",0.48,,0.50,0.44,0.41,0.25
"82F1, 72A (protein, listed as Rattus norvegicus, PEPTIDE (1)...(131) wild-type rat intestinal fatty acid binding protein) AFDGTWKVDRNENYEKFMEKMGINVVKRKLGAHDNLKLTITQEGNKFTVKESSNFRNIDVVFELGVDFAYSAADGTELTGTFTMEGNKLVGKFKRVDNGKELIAVREISGNELIQTYTYEGVEAKRIFKKE",0.68,,0.76,1.08,0.78,0.41
"78C2, 72A (protein, listed as Rattus norvegicus, PEPTIDE (1)...(131) wild-type rat intestinal fatty acid binding protein) AFDGTWKVDRNENYEKFMEKMGINVVKRKLGAHDNLKLTITQEGNKFTVKESSNFRNIDVVFELGVDFAYSAADGTECTGTWTMEGNKLVGKFKRVDNGKELIAVREISGNELIQTYTYEGVEAKRIFKKE",0.15,,0.20,0.20,0.19,0.09
"78M1, 72A (protein, listed as Rattus norvegicus, PEPTIDE (1)...(131) wild-type rat intestinal fatty acid binding protein) AFDGTWKVDRNENYEKFMEKMGINVVKRKLGAHDNLKLTITQEGNKFTVKESSNFRNIDVVFELGVDFAYSAADGTEMTGTWTMEGNKLVGKFKRVDNGKELIAVREISGNELIQTYTYEGVEAKRIFKKE",1.39,,1.50,1.44,1.44,0.92
"78W1, 72A (protein, listed as Rattus norvegicus, PEPTIDE (1)...(131) wild-type rat intestinal fatty acid binding protein) AFDGTWKVDRNENYEKFMEKMGINVVKRKLGAHDNLKLTITQEGNKFTVKESSNFRNIDVVFELGVDFAYSAADGTEWTGTWTMEGNKLVGKFKRVDNGKELIAVREISGNELIQTYTYEGVEAKRIFKKE",0.49,,0.53,0.57,0.53,0.29
"74Q, 72A (protein, listed as Rattus norvegicus, PEPTIDE (1)...(131) wild-type rat intestinal fatty acid binding protein) AFDGTWKVDRNENYEKFMEKMGINVVKRKLGAHDNLKLTITQEGNKFTVKESSNFRNIDVVFELGVDFAYSAAQGTELTGTWTMEGNKLVGKFKRVDNGKELIAVREISGNELIQTYTYEGVEAKRIFKKE",0.81,,0.86,0.87,0.74,0.43
"74N, 72A (protein, listed as Rattus norvegicus, PEPTIDE (1)...(131) wild-type rat intestinal fatty acid binding protein) AFDGTWKVDRNENYEKFMEKMGINVVKRKLGAHDNLKLTITQEGNKFTVKESSNFRNIDVVFELGVDFAYSAANGTELTGTWTMEGNKLVGKFKRVDNGKELIAVREISGNELIQTYTYEGVEAKRIFKKE",1.62,,1.57,1.44,1.52,1.38
